What all share (test): BLI, mAb on Protein A or AMC2 sensor, 1:1 fit
In assay [1] the target is SCB-1019T(B) (respiratory syncytial virus subtype B (Australian RSV B strain)).
For assay [2], the target named is WT-F-Trimer (respiratory syncytial virus, subtype not given).
In assay [3] the target is SCB-1019T(A) (respiratory syncytial virus subtype A (A2 strain)).
Assay [4] has as its target commercial GSK vaccine F protein control.

As usually defined, the Kd is the constant that tells how readily two partners part at equilibrium. A lower Kd goes with a tighter complex. The koff is a measure of how fast the partners let go of each other. In general, kon refers to a measure of how fast the partners come together. For the substance AM14 (antibody), the Kd in assay [1] stood at 0.2 nM; in assay [3], 0.382 nM; in assay [4] it was 0.484 nM. The RLU(nm) in assay [1] was determined as 0.534 nm; in assay [2], 0 nm; in assay [3], 0.693 nm; in assay [4], 1.34 nm. Also, the koff in assay [1] worked out at 4.43e-05 s⁻¹; in assay [3], 5.67e-05 s⁻¹; in assay [4], 0.000364 s⁻¹. The same substance came in with an on-rate (kon) in assay [1] of 222000 M⁻¹ s⁻¹.
As to AM22 (antibody), in assay [1], the Kd came to 0.495 nM, the RLU(nm) is 1.1 nm, the dissociation rate constant (koff) was found to be 3.99e-05 s⁻¹ and the kon stood at 80700 M⁻¹ s⁻¹. Further, in assay [2], the Kd is < 0.001 nM, the RLU(nm) was 0.123 nm and the off-rate constant (koff) is < 1e-07 s⁻¹. For the same substance, in assay [3], the dissociation constant (Kd) stood at 0.209 nM, the RLU(nm) is 1.13 nm and the koff was 2.1e-05 s⁻¹. Also, in assay [4], the Kd was found to be 0.644 nM, the RLU(nm) is 1.42 nm, the off-rate (koff) came to 0.000196 s⁻¹ and the kon came out at 304000 M⁻¹ s⁻¹.
For D25 (antibody), in assay [1], the dissociation constant (Kd) was 0.247 nM, the RLU(nm) amounted to 1.5 nm and the koff stood at 0.000112 s⁻¹. For the same substance, in assay [2], the dissociation constant Kd is < 0.001 nM, the RLU(nm) worked out at 0.266 nm, the dissociation rate constant (koff) is < 1e-07 s⁻¹ and the kon is 12100 M⁻¹ s⁻¹. In assay [3], this substance returned a Kd of 0.114 nM, an RLU(nm) of 1.19 nm, a koff of 3.38e-05 s⁻¹ and a kon of 296000 M⁻¹ s⁻¹. In assay [4], this substance returned a Kd of 0.221 nM, an RLU(nm) of 1.11 nm, a koff of 0.000104 s⁻¹ and a kon of 472000 M⁻¹ s⁻¹.
As for MPE8 (antibody), the Kd was 0.771 nM in assay [1], 22.1 nM in assay [2], < 0.001 nM in assay [3] and 2.22 nM in assay [4]. In addition, the RLU(nm) in assay [1] worked out at 0.672 nm; in assay [2], 0.0968 nm; in assay [3], 0.59 nm; in assay [4], 0.815 nm. The koff was 3.43e-05 s⁻¹ in assay [1], 0.000226 s⁻¹ in assay [2], < 1e-07 s⁻¹ in assay [3] and 0.000353 s⁻¹ in assay [4]. This substance yielded a kon in assay [3] of 4.12e+06 M⁻¹ s⁻¹.
hRSV90 (antibody): the Kd was 1.94 nM in assay [1], 12.7 nM in assay [2], < 0.001 nM in assay [3] and 0.771 nM in assay [4]. Besides, the RLU(nm) in assay [1] was found to be 0.068 nm; in assay [2] it was 0.0884 nm; in assay [3], 0.928 nm; in assay [4], 1.03 nm. Also, the koff in assay [1] was 0.00153 s⁻¹; in assay [2] it was 0.000271 s⁻¹; in assay [3], < 1e-07 s⁻¹; in assay [4], 0.000218 s⁻¹. The kon in assay [1] amounted to 788000 M⁻¹ s⁻¹; in assay [2], 21400 M⁻¹ s⁻¹; in assay [4] it was 282000 M⁻¹ s⁻¹.

For the origin of these results see EP4810057A1.
